The values that follow come from patent US20140357844A1 (RINAT NEUROSCIENCE, published 2014).

In experiment [1] the target is T1, Monomeric Trop-2 extracellular domain prepared from papain digestion of Trop-2-Fc fusion protein (human, UniProt P09758 27-274).
T1 construct: also called huTrop-2
T1 sequence: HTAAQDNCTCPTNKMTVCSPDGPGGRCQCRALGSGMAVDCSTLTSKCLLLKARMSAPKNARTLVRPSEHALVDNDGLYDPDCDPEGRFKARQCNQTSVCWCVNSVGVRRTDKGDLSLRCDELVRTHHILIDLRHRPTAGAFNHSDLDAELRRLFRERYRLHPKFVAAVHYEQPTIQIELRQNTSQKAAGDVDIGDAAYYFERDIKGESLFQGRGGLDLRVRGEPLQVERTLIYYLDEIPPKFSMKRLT
Briefly: SPR (Biacore), mouse IgG captured by anti-mouse IgG, monomeric Trop-2 ECD as analyte. (Surface plasmon resonance follows binding to a sensor surface in real time, without labels.)
Experimental: The affinities of anti-Trop-2 mouse antibodies generated from hybridomas were measured on a surface plasmon resonance Biacore™ 2000 or 3000 biosensor equipped with a research-grade CM5 sensor chip (Biacore™ AB, Uppsala, Sweden—now GE Healthcare). Anti-mouse IgG was first amine coupled to the CM5 sensor surface. Various anti-Trop-2 mouse IgGs were then captured by anti-mouse IgG. Monomeric Trop-2 extracellular domain prepared from papain digestion of Trop-2-Fc fusion protein was then injected as the analyte at 3 fold dilution series.

Experiment [2] deals with T2, Trop-2 on Trop-2 expressing tumor cells (human, UniProt P09758 27-323).
T2 construct: Endogenous Trop-2 of human tumour cell lines; also called Trop-2 positive tumor cells; A431 (Trop-2+++)
T2 sequence: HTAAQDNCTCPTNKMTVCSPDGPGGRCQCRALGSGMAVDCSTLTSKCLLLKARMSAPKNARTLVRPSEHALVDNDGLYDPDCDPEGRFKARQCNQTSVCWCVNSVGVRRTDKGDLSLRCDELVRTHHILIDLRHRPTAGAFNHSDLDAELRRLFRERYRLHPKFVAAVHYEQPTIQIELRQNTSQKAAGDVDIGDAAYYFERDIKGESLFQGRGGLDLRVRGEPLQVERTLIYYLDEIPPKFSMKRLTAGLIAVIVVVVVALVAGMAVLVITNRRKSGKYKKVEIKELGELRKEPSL
The experiment can be described thus: flow cytometry, A431 cells (Trop-2+++), 1 ug antibody per 300,000 cells.

The target in experiment [3] is T2, Trop-2 on Trop-2 expressing tumor cells. The experiment can be described thus: flow cytometry, Colo205 cells (Trop-2+), 1 ug antibody per 300,000 cells.
Another experiment concerns the target T3, Human Trop-2-mFc protein (human, UniProt P09758 27-274).
T3 construct: also called huTrop-2; not shown: mouse Fc
T3 sequence: T1 sequence
The experiment can be described thus: SPR (Biacore 2000), human Trop-2-mFc captured by anti-mouse Fc, Fab as analyte.

The term Kd denotes a measure of binding affinity in units of concentration. A lower Kd goes with a tighter complex. The koff is the first-order rate constant of dissociation. Low values mean a long-lived complex, high ones a short-lived complex. One may read the kon as a measure of how fast the partners come together. Lower therefore signals slow association.

Positions count from the first letter of the chain named.

Text for Human Trop-2-mFc protein: Human Trop-2-mFc protein was captured on the CM5 chip coupled with anti-mouse Fc.

B1: anti-Trop-2 mouse antibody 6G11 (antibody, mouse IgG2a, V domains shown)
VH: QVQLQQPGAELVRPGASVKLSCKASGYTFTSYWINWVKQRPGHGLEWIGNIYPSDSYSNYNQKFKDKATLTVDKSSSTAYMQVSSPTSEDSAVYYCTYGSSFDYWGQGTTVTVSS
VL: DILLTQSPAILSVSPGERVSFSCRASQTIGTSIHWYQQRTNGSPRLLIKYASESISGIPSRFSGSGSGTDFTLSINSVESEDIADYYCQQSNSWPFTFGSGTKLEIK
notes: also called m6G11
Regarding B1, in experiment [1], the Kd amounted to 31.8 nM, the koff amounted to 0.0086 s⁻¹ and the kon amounted to 270000 M⁻¹ s⁻¹.

B2: chimeric mouse anti-Trop-2 6G11 antibody (human IgG1) (antibody, V domains shown)
VH: B1 VH
VL: B1 VL
notes: Expressed in the human IgG1 subtype; also called mouse 6G11
In the case of B2, in experiment [2], the “% positive” value worked out at 99.9% and the MFI is 16200. For the same molecule, in experiment [3], the “% positive” value was found to be 100% and the MFI amounted to 1670.

B3: h6G11_WT antibody (human IgG1) (antibody, V domains shown)
VH: QVQLVQSGAEVKKPGASVKVSCKASGYTFTSYWINWVRQAPGQGLEWMGNIYPSDSYSNYNQKFKDRVTMTRDTSTSTVYMELSSLRSEDTAVYYCARGSSFDYWGQGTLVTVSS
VL: EIVLTQSPATLSLSPGERATLSCRASQTIGTSIHWYQQKPGQAPRLLIYYASESISGIPARFSGSGSGTDFTLTISSLEPEDFAVYYCQQSNSWPFTFGQGTKLEIK
notes: Human IgG1
In the case of B3, in experiment [2], the “% positive” value is 99.9% and the MFI came out at 19600. For the same molecule, in experiment [3], the “% positive” value is 99% and the MFI worked out at 1720.

B4: Human 6G11 WT Fab fragment (Fab, V domains shown)
VH: B3 VH
VL: B3 VL
notes: Fab; also called h6G11_WT; h6G11
With B4, in the experiment with Human Trop-2-mFc protein, the affinity, expressed as Kd, was 27 nM; the koff amounted to 0.0096 s⁻¹; the kon is 360000 M⁻¹ s⁻¹.

B5: Human 6G11_FKG_SF Fab fragment (Fab, V domains shown)
VH: B3 VH with Y52F, Q62K, S101G
VL: B3 VL with Q89S, N92F
notes: Fab
For B5, in the experiment with Human Trop-2-mFc protein, the Kd is 0.6 nM, the koff came out at 0.00038 s⁻¹ and the kon amounted to 640000 M⁻¹ s⁻¹.

B6: h6G11_FKG_SF antibody (human IgG1) (antibody, V domains shown)
VH: B3 VH with Y52F, Q62K, S101G
VL: B3 VL with Q89S, N92F
For the molecule B6, in experiment [2], the “% positive” value came to 99.9% and the MFI amounted to 20300. Moreover, in experiment [3], the “% positive” value was determined as 100% and the MFI was determined as 2060.
